Data published in patent US20200072831A1.

Columns and labels:
[1] = molecular target: DRB5*01:01 HLA Class II antigen expressed in a K cell line host (K562), lacking a CLIP peptide in the peptide binding groove (human); experiment: Luminex bead assay, Streptavidin-PE detection of biotinylated CLIP; no-peptide control beads
[2] = molecular target: DRB5*01:01 HLA Class II antigen (K cell line host) loaded in vitro with biotinylated CLIP peptide (human); experiment: Luminex bead assay, Streptavidin-PE detection of biotinylated CLIP loaded on the antigen
[3] = molecular target: DRB1*03:01 HLA Class II antigen loaded in vitro with biotinylated CLIP peptide (human); experiment: as above
Chain of DRB1*03:01 HLA Class II antigen loaded in vitro with biotinylated CLIP peptide (human) (P04233 97-121 limits assumed, chain 3 of 3, other chains not shown): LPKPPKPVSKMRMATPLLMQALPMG

MFI [1]: 840 MFI | MFI [2]: 4600 MFI | MFI [3]: 2810 MFI
Substance: Anti-biotinylated CLIP (Streptavidin-PE, to detect the presence of the biotinylated CLIP) (from UniProt P22629 37-163)
